Measured values as given in publication PMC13507078, “The BRCT domain enhances DNA binding and catalytic efficiency of fungal PARPs”.

Biological target: T1, Af-PARP1 ΔBRCT (Aspergillus fumigatus, UniProt B0Y3N8 196-688)
T1 sequence: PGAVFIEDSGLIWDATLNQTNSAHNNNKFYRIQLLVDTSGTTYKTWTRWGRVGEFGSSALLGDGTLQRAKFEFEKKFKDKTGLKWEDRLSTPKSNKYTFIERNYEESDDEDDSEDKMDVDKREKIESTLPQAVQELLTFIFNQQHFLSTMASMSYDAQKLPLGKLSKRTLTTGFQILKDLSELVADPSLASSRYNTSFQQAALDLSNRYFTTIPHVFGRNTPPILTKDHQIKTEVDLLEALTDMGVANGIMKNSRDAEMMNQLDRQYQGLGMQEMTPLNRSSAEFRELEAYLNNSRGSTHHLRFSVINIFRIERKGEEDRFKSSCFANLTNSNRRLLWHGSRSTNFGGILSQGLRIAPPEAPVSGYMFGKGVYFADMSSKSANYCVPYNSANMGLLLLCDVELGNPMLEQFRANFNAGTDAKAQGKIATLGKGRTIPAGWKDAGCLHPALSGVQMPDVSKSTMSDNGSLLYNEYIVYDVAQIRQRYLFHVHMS
Assay: EMSA; similar apparent strength to WT in titration; EMSA: 50 mM HEPES pH 8, 100 mM NaCl, 10% glycerol, 10 mM DTT, 45 min at 4 °C, 7% native PAGE 0.5x TBE; plasmid EMSA: 20 mM Tris-HCl pH 8, 30 mM NaCl, 1 mM EDTA, 1 mM DTT; CD: 20 mM HEPES pH 8, 100 mM NaCl, 0.5 mM TCEP, 2% glycerol
Conditions: protein: recombinant; tags: N-terminal His (HRV3C-cleavable; removed for SAXS/CD); dumbbell of two hairpins, nick

Question: Does CGGTCGATCGTAAGATCGACCGGCGCTGGAGCTTGCTCCAGCGC (structured_DNA, 5'-phosphate) [DNA-1 (5'P nick)] bind?
Answer: binds
